Drawing on publication PMC5386588, this text covers fold induction of reporter activity by T3 for one substance.

This experiment deals with PNR hinge-LBD (131–410) (human) (UniProt Q9Y5X4). Put plainly: two-hybrid; as a1, yeast cultured in the presence of the cognate ligand of the AAD partner (T3 for TRβ).
Sequence of UniProt Q9Y5X4 (Q9Y5X4 131-410): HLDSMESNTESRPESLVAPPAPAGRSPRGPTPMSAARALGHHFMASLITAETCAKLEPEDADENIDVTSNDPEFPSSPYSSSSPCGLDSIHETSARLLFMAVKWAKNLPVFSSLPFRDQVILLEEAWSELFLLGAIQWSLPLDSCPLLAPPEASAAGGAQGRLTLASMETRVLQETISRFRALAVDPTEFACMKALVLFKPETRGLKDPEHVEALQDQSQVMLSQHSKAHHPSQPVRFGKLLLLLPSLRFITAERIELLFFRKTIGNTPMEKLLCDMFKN

“near full-length VP16-TRβ1 construct (from UniProt P10828 1-461) (domain or fragment)”: the fold induction of reporter activity by T3 was 20 fold.
